Measurements: US20190336544A1

Experiments:
[1] = target: T1, mouseCD47, coated on ELISA plates (mouse) (UniProt Q61735); test: ELISA; mCD47 coated, culture supernatant
T1 sequence (looked up): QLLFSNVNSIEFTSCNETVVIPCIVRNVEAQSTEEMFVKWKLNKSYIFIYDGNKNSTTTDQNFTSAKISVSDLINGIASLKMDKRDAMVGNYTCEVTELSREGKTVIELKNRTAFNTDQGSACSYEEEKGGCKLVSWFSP

[2] = target: IgG (coating control in the ELISA binding assays); test: ELISA; IgG coated, culture supernatant

ELISA signal (quantity not given) [1]: 0.527
ELISA signal (quantity not given) [2]: 0.067
B1: secreted anti-mCD47 scFv (αmCD47scFv-V5-HIS, SYN3161) (scFv, from a related filing)
scFv: QVKLLQSGAALVKPGASVKMSCQASGYSFTDYWVTWVKQSHGQSLEWIGEIYPSNTVTNFNDNFKGKATLTVDKSTSTAYMELSRLTSEDSAIYYCTRIGNSGYRVGWFIYWGQGTLVTVLSGGGGSGGGGSGGGGSDTVLTQSPALAVSPGERVTISCKASESVSSHMHWYQQKPGQQPKLLIYKASNLASGVPARFSGSGSGTDFTLTIDPVEADDTATYFCQQGWNGPFTFGAGTRLELKRADAAGSGELGGSGKPIPNPLLGLDSTGSGHHHHHH
